# Experimental data from paper PMC3299734, “In Vivo Depletion of Lymphotoxin-Alpha Expressing Lymphocytes Inhibits Xenogeneic Graft-versus-Host-Disease” (PLoS ONE, 2012).
# B1: TNFRII.Ig (TNFRII IgG fusion protein) (Fc fusion, human, UniProt P20333 23-257, looked up)
# chain: LPAQVAFTPYAPEPGSTCRLREYYDQTAQMCCSKCSPGQHAKVFCTKTSDTVCDSCEDSTYTQLWNWVPECLSCGSRCSSDQVETQACTREQNRICTCRPGWYCALSKQEGCRLCAPLRKCRPGFGVARPGTETSDVVCKPCAPGTFSNTTSSTDICRPHQICNVVAIPGNASMDAVCTSTSPTRSMAPGAVHLPQPVSTRSQHTQPTPEPSTAPSTSFLLPMGPSPPAEGSTGD
# modifications: labeled with SULFO-TAG NHS-ester as the detecting copy in the competitive blocking ELISA
# notes: TNF receptor II (TNFRSF1B), human, fused to Ig; detected with anti-human Fc); also called TNFRII.Fc
# B2: human LT-α3 (soluble lymphotoxin-α homotrimer) (ligand, UniProt P01374 35-205, looked up)
# chain: LPGVGLTPSAAQTARQHPKMHLAHSTLKPAAHLIGDPSKQNSLLWRANTDRAFLQDGFSLSNNSLLVPTSGIYFVYSQVVFSGKAYSPKATSSPLYLAHEVQLFSSQYPFHVPLLSSQKMVYPGLQEPWLHSMYHGAAFQLTQGDQLSTHTDGIPHLVLSPSTVFFGAFAL
# modifications: labeled with biotin in the competitive blocking ELISA only
# notes: lymphotoxin-alpha, human, recombinant soluble homotrimer; also called recombinant LT-α3; soluble LT-α
# Experiments:
# [1] = molecular target: human LT-α1β2 (lymphotoxin-α/lymphotoxin-β heterotrimer) (human) (UniProt P01374); test: ELISA; wells coated overnight with 0.5-1 µg/ml human LT-α1β2 or LT-α3, blocked with PBS with 5 mg/ml BSA; LT-βR or TNFRII IgG fusion proteins added; detected with HRP goat F(ab')2 anti-human Fc and tetramethylbenzidine; EC50 by 4-parameter fit
# [2] = molecular target: human LT-α1β2 (lymphotoxin-α/lymphotoxin-β heterotrimer) (human) (UniProt P01374); test: ELISA; competitive blocking ELISA (Meso Scale Discovery read-out): test molecule serially diluted, incubated 2 hr with biotinylated LT-α3 or LT-α1β2, captured on streptavidin plates 30 min, then SULFO-TAG TNFRII.Ig or LT-βR.Ig added 30 min
# [3] = molecular target: B2; test: ELISA; wells coated overnight with 0.5-1 µg/ml human LT-α1β2 or LT-α3, blocked with PBS with 5 mg/ml BSA; LT-βR or TNFRII IgG fusion proteins added; detected with HRP goat F(ab')2 anti-human Fc and tetramethylbenzidine; EC50 by 4-parameter fit; settings: both partners purified
# [4] = molecular target: B2; test: ELISA; competitive blocking ELISA (Meso Scale Discovery read-out): test molecule serially diluted, incubated 2 hr with biotinylated LT-α3 or LT-α1β2, captured on streptavidin plates 30 min, then SULFO-TAG TNFRII.Ig or LT-βR.Ig added 30 min; settings: both partners purified
# [5] = molecular target: B1; test: as above; settings: both partners purified
molecule,measurement,setting,value
Human LT-βR.Ig (LT-βR IgG fusion protein) (from UniProt P36941 31-227) (Fc fusion),EC50,[1],0.048 nM
same,IC50,[2],0.1 nM
B1,EC50,[3],0.133 nM
same,IC50,[4],0.83 nM
B2,binding result,[5],binds
